Test results as given in article PMC9121386.

Target: 80S ribosome (purified 80S ribosomal fraction from H1299 cells) (human (endogenous in H1299))

Chain of fragile histidine triad (Fhit), wild type (P49789 whole entry): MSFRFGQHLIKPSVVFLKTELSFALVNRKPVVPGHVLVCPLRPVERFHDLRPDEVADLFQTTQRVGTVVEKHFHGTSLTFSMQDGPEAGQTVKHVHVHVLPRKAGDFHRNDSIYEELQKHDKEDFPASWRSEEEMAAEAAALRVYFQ

turnover of Ap3A by Fhit (RP-HPLC) with 80S ribosomes pre-incubated with RNaseA: < 5%
Substance: fragile histidine triad (Fhit), wild type (from UniProt P49789 1-147) (enzyme)
